# Data: publication PMC10681739, “High-throughput data and modeling reveal insights into the mechanisms of cooperative DNA-binding by transcription factor proteins”
# T1: ETS1 (Homo sapiens, UniProt P14921)
# T1 sequence: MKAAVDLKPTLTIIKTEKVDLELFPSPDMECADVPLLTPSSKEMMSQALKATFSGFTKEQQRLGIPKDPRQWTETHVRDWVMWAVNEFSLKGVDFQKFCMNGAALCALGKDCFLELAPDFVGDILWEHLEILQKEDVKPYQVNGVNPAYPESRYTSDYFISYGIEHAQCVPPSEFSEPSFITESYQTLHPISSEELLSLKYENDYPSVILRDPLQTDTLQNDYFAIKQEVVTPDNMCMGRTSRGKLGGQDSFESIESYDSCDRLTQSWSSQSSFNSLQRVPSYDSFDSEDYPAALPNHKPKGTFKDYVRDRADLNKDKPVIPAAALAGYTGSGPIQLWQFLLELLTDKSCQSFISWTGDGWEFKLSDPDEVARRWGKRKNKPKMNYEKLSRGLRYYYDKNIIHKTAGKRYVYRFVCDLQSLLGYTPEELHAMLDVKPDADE
# Molecular target: T1, ETS1
# Assay: gcPBM; 1 nM ETS1
# Details: tags: N-terminal GST (pDEST15), kept (PMC6008103); label: surface-attached array probe
row,Binder,binding signal
1,Table S2 C row 81 (dsDNA) DNA 1: AGCCTGACTCTGTGCTGTGGTTGTGAGGCTGGAATG DNA 2: CATTCCAGCCTCACAACCACAGCACAGAGTCAGGCT,"440 PBM fluorescence, median of replicate spots"
2,Table S2 B row 1486 (dsDNA) DNA 1: TCTGTCGTCCCACTTCCTGCTGCGGATTCCACCTCG DNA 2: CGAGGTGGAATCCGCAGCAGGAAGTGGGACGACAGA,"12200 PBM fluorescence, median of replicate spots"
3,Table S2 C row 131 (dsDNA) DNA 1: GAGGCATTATAGAAAACCGCAAGATTTTAGTCTGAG DNA 2: CTCAGACTAAAATCTTGCGGTTTTCTATAATGCCTC,"420 PBM fluorescence, median of replicate spots"
4,Table S2 C row 27 (dsDNA) DNA 1: AAAACAAGAACCAAAACCACAAGAACCACAAGAACC DNA 2: GGTTCTTGTGGTTCTTGTGGTTTTGGTTCTTGTTTT,"420 PBM fluorescence, median of replicate spots"
5,Table S2 C row 84 (dsDNA) DNA 1: ATCTATTATGAGCCTACCACCATGCTAGACAAGTTG DNA 2: CAACTTGTCTAGCATGGTGGTAGGCTCATAATAGAT,"434 PBM fluorescence, median of replicate spots"
6,Table S2 C row 153 (dsDNA) DNA 1: GTAACAACACCAAGGACCACAAATGTGTATGTTGAA DNA 2: TTCAACATACACATTTGTGGTCCTTGGTGTTGTTAC,"421 PBM fluorescence, median of replicate spots"
7,Table S2 B row 1811 (dsDNA) DNA 1: GGTTTCGCTTCCGGGTTAGGCGGCCGGAGAAGCGTA DNA 2: TACGCTTCTCCGGCCGCCTAACCCGGAAGCGAAACC,"11000 PBM fluorescence, median of replicate spots"
8,Table S2 B row 4091 (dsDNA) DNA 1: GGCATTCACTTCCGGTCTGGGGCCTACGGCGGCGGC DNA 2: GCCGCCGCCGTAGGCCCCAGACCGGAAGTGAATGCC,"37100 PBM fluorescence, median of replicate spots"
9,Table S2 C row 170 (dsDNA) DNA 1: TCCTGAACTATTCACTGTGGTGATGAAATATGCTAA DNA 2: TTAGCATATTTCATCACCACAGTGAATAGTTCAGGA,"432 PBM fluorescence, median of replicate spots"
10,Table S2 C row 22 (dsDNA) DNA 1: CTTGTTCAAGCAATTTGAGGTTTTTTAGGGAGGTTG DNA 2: CAACCTCCCTAAAAAACCTCAAATTGCTTGAACAAG,"428 PBM fluorescence, median of replicate spots"
11,Table S2 C row 154 (dsDNA) DNA 1: CCGTAATCTTCATAAACCTCAATGCTCAAGGTGCAG DNA 2: CTGCACCTTGAGCATTGAGGTTTATGAAGATTACGG,"438 PBM fluorescence, median of replicate spots"
12,Table S2 B row 2731 (dsDNA) DNA 1: AGAACCACTTCCTCTCAGTAAATCACAGAGACTGTA DNA 2: TACAGTCTCTGTGATTTACTGAGAGGAAGTGGTTCT,"10400 PBM fluorescence, median of replicate spots"
13,Table S2 C row 138 (dsDNA) DNA 1: AGTAGTGCTTTTTCAACCACAGACCAACATTTGAGA DNA 2: TCTCAAATGTTGGTCTGTGGTTGAAAAAGCACTACT,"437 PBM fluorescence, median of replicate spots"
14,Table S2 C row 4 (dsDNA) DNA 1: GAAAGAGCGAAATGTTGCGGTTTAGTTAATGCTTTG DNA 2: CAAAGCATTAACTAAACCGCAACATTTCGCTCTTTC,"442 PBM fluorescence, median of replicate spots"
15,Table S2 C row 3 (dsDNA) DNA 1: GCGAGAGCAGCAAGAACCACACCCAGCAGCAATGTC DNA 2: GACATTGCTGCTGGGTGTGGTTCTTGCTGCTCTCGC,"422 PBM fluorescence, median of replicate spots"
16,Table S2 B row 2712 (dsDNA) DNA 1: TGGGGCGAAATCCACTGACTTCCGGCTACGCCGTTG DNA 2: CAACGGCGTAGCCGGAAGTCAGTGGATTTCGCCCCA,"10100 PBM fluorescence, median of replicate spots"

row,Binder,binding signal
1,Table S2 C row 119 (dsDNA) DNA 1: GGAAAGGTTGACGATAGTGGTTAAGTGGCTCGGCCT DNA 2: AGGCCGAGCCACTTAACCACTATCGTCAACCTTTCC,"429 PBM fluorescence, median of replicate spots"
2,Table S2 C row 1 (dsDNA) DNA 1: CCCTCATCTGAGAACACCACATTTCTCCCTCTGTCA DNA 2: TGACAGAGGGAGAAATGTGGTGTTCTCAGATGAGGG,"436 PBM fluorescence, median of replicate spots"
3,Table S2 B row 3124 (dsDNA) DNA 1: TCCACATCCTGCTCCTCGGGTTTACGGCGAGGACTC DNA 2: GAGTCCTCGCCGTAAACCCGAGGAGCAGGATGTGGA,"10800 PBM fluorescence, median of replicate spots"
4,Table S2 C row 99 (dsDNA) DNA 1: ACAAGCATTTGATTCTGTGGGTCCCCAATGTTGGAA DNA 2: TTCCAACATTGGGGACCCACAGAATCAAATGCTTGT,"431 PBM fluorescence, median of replicate spots"
5,Table S2 B row 4089 (dsDNA) DNA 1: GCTGTTTCCTGCTGATAAAAACACCCCTCAACTTCA DNA 2: TGAAGTTGAGGGGTGTTTTTATCAGCAGGAAACAGC,"11800 PBM fluorescence, median of replicate spots"
6,Table S2 B row 2131 (dsDNA) DNA 1: CTACTTTCCGGTCAACGCGGCCTGGGGTACCACCTC DNA 2: GAGGTGGTACCCCAGGCCGCGTTGACCGGAAAGTAG,"9890 PBM fluorescence, median of replicate spots"
7,Table S2 C row 82 (dsDNA) DNA 1: ATTCTAAAATTGGACTGTGGTAAGGGTTGCACAACT DNA 2: AGTTGTGCAACCCTTACCACAGTCCAATTTTAGAAT,"420 PBM fluorescence, median of replicate spots"
8,Table S2 B row 3533 (dsDNA) DNA 1: CCATTTCCCGCCTACCGACCTGCTGCACCTCACGGA DNA 2: TCCGTGAGGTGCAGCAGGTCGGTAGGCGGGAAATGG,"9790 PBM fluorescence, median of replicate spots"
9,Table S2 C row 117 (dsDNA) DNA 1: ACAGAGCCATTACCTACCACAGAGCTGACGTGAACA DNA 2: TGTTCACGTCAGCTCTGTGGTAGGTAATGGCTCTGT,"437 PBM fluorescence, median of replicate spots"
10,Table S2 B row 123 (dsDNA) DNA 1: ACAACCCGGAAGTTGGCGCAGCGCGCTTGCCAATGG DNA 2: CCATTGGCAAGCGCGCTGCGCCAACTTCCGGGTTGT,"12000 PBM fluorescence, median of replicate spots"
11,Table S2 C row 176 (dsDNA) DNA 1: ATATCCACTCAGTAGTGTGGTTTGTAAGGACTAAAT DNA 2: ATTTAGTCCTTACAAACCACACTACTGAGTGGATAT,"440 PBM fluorescence, median of replicate spots"
12,Table S2 C row 38 (dsDNA) DNA 1: CAATTTAGCCTTTTAACCACTAAACTCCCTTGCCTA DNA 2: TAGGCAAGGGAGTTTAGTGGTTAAAAGGCTAAATTG,"426 PBM fluorescence, median of replicate spots"
13,Table S2 C row 152 (dsDNA) DNA 1: CTTTCATCTCTGACATGTGGCTTCTAAGGGTACACT DNA 2: AGTGTACCCTTAGAAGCCACATGTCAGAGATGAAAG,"421 PBM fluorescence, median of replicate spots"
14,Table S2 C row 64 (dsDNA) DNA 1: GACAGAAAGCAAATTAGTGGTAGCCAAGGGCTAGGG DNA 2: CCCTAGCCCTTGGCTACCACTAATTTGCTTTCTGTC,"439 PBM fluorescence, median of replicate spots"
15,Table S2 B row 185 (dsDNA) DNA 1: GCCAGGAGGACTTCCGGGTGGGTGTGATATCTGCGA DNA 2: TCGCAGATATCACACCCACCCGGAAGTCCTCCTGGC,"11300 PBM fluorescence, median of replicate spots"
16,Table S2 C row 168 (dsDNA) DNA 1: AACAGATACTCAAAAACCGCTGGCTGAACACATGGA DNA 2: TCCATGTGTTCAGCCAGCGGTTTTTGAGTATCTGTT,"425 PBM fluorescence, median of replicate spots"
